Results: ChEMBL document CHEMBL1126580, “Enantiospecific syntheses of alpha-(fluoromethyl)tryptophan analogues: interactions with tryptophan hydroxylase and aromatic L-amino acid decarboxylase” (J Med Chem, 1993)

What was measured:
[1] = substrate: N[C@@](CF)(Cc1c[nH]c2ccccc12)C(=O)O; assay: Km value was evaluated as a substrate for P815 tryptophan hydroxylase […]
[2] = substrate: N[C@@](CF)(Cc1c[nH]c2ccccc12)C(=O)O; assay: Compound was evaluated as a substrate for P815 tryptophan hydroxylase […]

B1: Tryptophan 5-hydroxylase 1 (Rattus norvegicus), P09810 (protein)
chain: MIEDNKENKDHSSERGRVTLIFSLKNEVGGLIKALKIFQENHVNLLHIESRKSKRRNSEFEIFVDCDINREQLNDIFPLLKSHTTVLSVDSPDQLPEKEDVMETVPWFPKKISDLDFCANRVLLYGSELDADHPGFKDNVYRRRRKYFAELAMNYKHGDPIPKIEFTEEEIKTWGTIFRELNKLYPTHACREYLRNLPLLSKYCGYREDNVPQLEDVSNFLKERTGFSIRPVAGYLSPRDFLSGLAFRVFHCTQYVRHSSDPLYTPEPDTCHELLGHVPLLAEPSFAQFSQEIGLASLGASEETVQKLATCYFFTVEFGLCKQDGQLRVFGAGLLSSISELRHALSGHAKVKPFDPKVACKQECLITSFQDVYFVSESFEDAKEKMREFAKTVKRPFGVKYNPYTQSIQVLRDSKSITSAMNELRHDLDVVNDALARVSRWPSV
In the case of B1, the Km [1] is reported as 4.31 mM and the Vmax (uM min-1 (mg of protein)-1) [2] is reported as 17.7.
